What was measured:
[1] = tested on: mouse primary hepatocytes; assay: Mouse primary hepatocytes: MTT viability and pAkt Western blot; format: cell-based
Protocol: Data are expressed as mean±SEM, n=5 for each group. […] (C) Western blot analysis of protein levels of phosphorylated Akt (pAkt) (marker of insulin signaling) in […] […] Lane 1: con; Lane 2: 5U/mL N-ABD094-rhArg (SEQ ID NO: 50); Lane 3: 100 nM insulin; Lane 4: 5U/mL N-ABD094-rhArg (SEQ ID NO: 50) +100 nM insulin.
Obesity is highly associated with insulin resistance. We therefore conducted both in vivo and in vitro study to determine whether N-ABD094-rhArg (SEQ ID NO: 50) treatment will have effects on insulin sensitivity. […] […] Cells were then collected for Western blot analysis to detect phosphorylated protein kinase B (pAkt), which is commonly used as marker of insulin signaling.

[2] = tested on: plasma arginine; assay: Plasma arginine after single i.p. 500U N-ABD094-rhArg (LC-MS/MS); format: in vivo, C57BL/6J male mice
Protocol: Each time point represents mean±SEM of 5 mice.
Fifty C57BL/6J male mice (10-12 weeks of age) were used in this study. A single dose of 500U N-ABD094-rhArg (SEQ ID NO: 50) was administered to the mouse via i.p. injection. Blood samples were collected from the saphenous vein using heparinized capillary tubes, and were centrifuged at 800×g to obtain plasma.
Following injection, serum was collected at Hour 2, Hour 4, Hour 8, Hour 16, Hour 24 (Day 1) and from Day 2 to Day 12 at 24-hour intervals, and from Day 12 to Day 30 at 72-hour intervals. To strike a balance between the number of animals used and to minimize the effect on results of pharmacokinetics and pharmacodynamics study caused by removal of N-ABD094-rhArg (SEQ ID NO: 50) from the mouse as a consequence of blood collection, mice were divided into 10 groups, with n=5 in each group, and subjected to blood collection at the indicated time-point(s) shown in brackets: Group 1 (Hour 2), Group 2 (Hour 4), Group 3 (Hour 8), Group 4 (Hour 16), Group 5 (Hour 24), Group 6 (Day 2, Day 7, Day 12), Group 7 (Day 3, Day 8, Day 18), Group 8 (Day 4, Day 9, Day 21), Group 9 (Day 5, Day 10, Day 15, Day 24), Group 10 (Day 0, Day 6, Day 11, Day 27, Day 30).

[3] = Normal lean mice on chow diet, 500U at 10-day intervals for 4 weeks; format: in vivo, C57BL/6J male mice
Source text: Thus, we treated normal lean C57BL/6J male mice fed an ordinary chow diet via i.p. injection of 500U N-ABD094-rhArg (SEQ ID NO: 50) at 10-day intervals for 4 weeks. After 4 weeks of treatment, there was over 25% reduction of visceral (perigondal, perirenal and mesenteric fad pad) and subcutaneous (inguinal fat pad) fat mass (FIG. 15A) in comparison with the control mice injected with the vehicle (saline).
Obesity is highly associated with insulin resistance. We therefore conducted both in vivo and in vitro study to determine whether N-ABD094-rhArg (SEQ ID NO: 50) treatment will have effects on insulin sensitivity. […] At 24-hour after culture in N-ABD094-rhArg (SEQ ID NO: 50) or control (without addition of N-ABD094-rhArg) medium, primary hepatocytes were stimulated with 100 nM insulin for 20 min. Cells were then collected for Western blot analysis to detect phosphorylated protein kinase B (pAkt), which is commonly used as marker of insulin signaling.

[4] = Treatment of pre-existing HFD-induced obesity (DIO), male mice; format: in vivo, C57BL/6J male mice
Source text: After confirming that concurrent treatment with N-ABD094-rhArg (SEQ ID NO: 50) can effectively prevent HFD-induced obesity and associated complications and comorbidities including insulin resistance, glucose intolerance, hyperglycemia, dyslipidemia, hepatic steatosis, chronic inflammation, and whitening of BAT, next, we studied the efficacy of N-ABD094-rhArg (SEQ ID NO: 50) in reducing obesity and reversing these disorders in mice with pre-existing diet-induced obesity (DIO). C57BL/6J male mice were fed a HFD from 5 week old for 12 weeks to induce obesity and associated complications and comorbidities. They were then stratified according to the bodyweight into 2 groups and treated with either 600-700U N-ABD094-rhArg (SEQ ID NO: 50) or saline as vehicle control at 7-day intervals for 12 weeks while continued to be fed the HFD. One group of mice were fed a matched low fat diet (LFD) and injected with saline throughout the study to serve as the lean control of various measurements. Two cohorts, with n=5 in each group, have been separately conducted. Mice were housed in groups of 5. Similar results were obtained in the two independent cohorts. Data of one cohort of mice were presented in Examples 23-28.

[5] = DIO mice treated with 600U for 20 weeks; format: in vivo, C57BL/6J male mice
Source text: Together, these findings support that N-ABD094-rhArg (SEQ ID NO: 50) is safe and effective for long term use.

[6] = 500U at 10-day intervals, 4 weeks

B1: N-ABD094-rhArg: albumin binding domain ABD094 fused N-terminally to recombinant human arginase I, SEQ ID NO: 50 (protein)
chain: MHHHHHHDEAVDANSLAEAKEAANAELDSYGVSDFYKRLIDKAKTVEGVEALKDAILAALPSGSNNNNNNGSGGMSAKSRTIGIIGAPFSKGQPRGGVEEGPTVLRKAGLLEKLKEQECDVKDYGDLPFADIPNDSPFQIVKNPRSVGKASEQLAGKVAEVKKNGRISLVLGGDHSLAIGSISGHARVHPDLGVIWVDAHTDINTPLTTTSGNLHGQPVSFLLKELKGKIPDVPGFSWVTPCISAKDIVYIGLRDVDPGEHYILKTLGIKYFSMTEVDRLGIGKVMEETLSYLLGRKKRPIHLSFDVDGLDPSFTPATGTPVVGGLTYREGLYITEEIYKTGLLSGLDIMEVNPSLGKTPEEVTRTVNTAVAITLACFGLAREGNHKPIDYLNPPK
modifications: Mn2+; N-ABD094-rhArg, Synthesized in the Lab
- phosphorylation of Akt upon insulin stimulation ([1]; 5U/mL 24 hr, then 100 nM insulin 20 min): prominent increase
- cell viability (MTT) ([1]; 5U/mL, 48 hr): did not affect cell viability
- plasma arginine concentration reached within 2 hour after injection ([2]; 500U i.p.): 1 µM
- Plasma arginine concentrations (Mean of 5 mice ± SEM) ([2]; Day 2 after i.p. 500U): 0.944 ± 0.007 µM
- Plasma arginine concentrations (Mean of 5 mice ± SEM) ([2]; Day 3 after i.p. 500U): 0.965 ± 0.008 µM
- Plasma arginine concentrations (Mean of 5 mice ± SEM) ([2]; Day 4 after i.p. 500U): 0.535 ± 0.121 µM
- Plasma arginine concentrations (Mean of 5 mice ± SEM) ([2]; Day 5 after i.p. 500U): 0.681 ± 0.043 µM
- Plasma arginine concentrations (Mean of 5 mice ± SEM) ([2]; Day 6 after i.p. 500U): 0.896 ± 0.089 µM
- Plasma arginine concentrations (Mean of 5 mice ± SEM) ([2]; Day 7 after i.p. 500U): 0.792 ± 0.135 µM
- Plasma arginine concentrations (Mean of 5 mice ± SEM) ([2]; Day 8 after i.p. 500U): 0.916 ± 0.079 µM
- Plasma arginine concentrations (Mean of 5 mice ± SEM) ([2]; Day 9 after i.p. 500U): 1.224 ± 0.178 µM
- Plasma arginine concentrations (Mean of 5 mice ± SEM) ([2]; Day 10 after i.p. 500U): 0.721 ± 0.054 µM
- Plasma arginine concentrations (Mean of 5 mice ± SEM) ([2]; Day 11 after i.p. 500U): 3.828 ± 1.511 µM
- Plasma arginine concentrations (Mean of 5 mice ± SEM) ([2]; Day 12 after i.p. 500U): 7.607 ± 2.325 µM
- Plasma arginine concentrations (Mean of 5 mice ± SEM) ([2]; Day 15 after i.p. 500U): 31.283 ± 4.569 µM
- Plasma arginine concentrations (Mean of 5 mice ± SEM) ([2]; Day 18 after i.p. 500U): 48.648 ± 3.989 µM
- Plasma arginine concentrations (Mean of 5 mice ± SEM) ([2]; Day 21 after i.p. 500U): 73.55 ± 3.76 µM
- Plasma arginine concentrations (Mean of 5 mice ± SEM) ([2]; Day 24 after i.p. 500U): 76.07 ± 4.92 µM
- Plasma arginine concentrations (Mean of 5 mice ± SEM) ([2]; Day 27 after i.p. 500U): 111.09 ± 6.21 µM
- Plasma arginine concentrations (Mean of 5 mice ± SEM) ([2]; Day 30 after i.p. 500U): 110.91 ± 3.81 µM
- Plasma arginine concentrations (Mean of 5 mice ± SEM) ([2]; Hour 2 after i.p. 500U): 1.007 ± 0.013 µM
- Plasma arginine concentrations (Mean of 5 mice ± SEM) ([2]; Hour 4 after i.p. 500U): 0.934 ± 0.021 µM
- Plasma arginine concentrations (Mean of 5 mice ± SEM) ([2]; Hour 8 after i.p. 500U): 0.912 ± 0.006 µM
- Plasma arginine concentrations (Mean of 5 mice ± SEM) ([2]; Hour 16 after i.p. 500U): 0.943 ± 0.010 µM
- Plasma arginine concentrations (Mean of 5 mice ± SEM) ([2]; Hour 24 after i.p. 500U): 0.934 ± 0.007 µM
- mRNA levels of Acc1, Fasn, Scd1 in visceral WAT and liver [3, 6]: dramatically suppressed
- size of adipocytes in visceral WAT (histology) [3, 6]: prominent reduction
- reduction of visceral and subcutaneous fat mass vs vehicle ([3]; 500U i.p. at 10-day intervals, after 4 weeks): over 25%
- insulin sensitivity in insulin tolerance test (ITT) ([3]; after 2 weeks of treatment): significant increase
- HOMA-IR score ([4]; 4 weeks after treatment (35.1 prior to treatment)): 1.2
- Mcp1 and Tgfb expression in pancreas ([4]; 12 weeks): significantly downregulate
- Mcp1 expression in perigonadal WAT ([4]; 12 weeks): significantly downregulated
- WAT within the pancreas and heart (histology) ([4]; 12 weeks): prominent reduction
- amount of collagen fibres in kidney (Sirius red) ([4]; 12 weeks): prominently reduced
- anti-inflammatory genes (Il10, Il22, Infg) in liver ([4]; 12 weeks): markedly upregulate
- lipid droplets in liver (oil red O) ([4]; 12 weeks): dramatic clearance
- liver triglyceride concentrations ([4]; 12 weeks): reduced to a level similar to the lean control
- plasma ALT and AST concentrations ([4]; 12 weeks): comparable to the lean control
- profibrotic gene Col1a1 in kidney ([4]; 12 weeks): greatly suppressed
- profibrotic gene Tgfb in liver ([4]; 12 weeks): restored to a level similar to the lean control
- proinflammatory genes (Il1a, Il1b) in liver ([4]; 12 weeks): significantly downregulate
- proinflammatory genes (Mcp1, Tnfa, Il1b) in kidney, downregulated to ([4]; 12 weeks): levels similar to the lean control
- serum concentrations of Mcp1 ([4]; 12 weeks): corrected to a level similar to the lean control mice
- triglyceride concentrations in kidney, pancreas, heart and skeletal muscle ([4]; 12 weeks): restored a level similar to the lean control
- vacuoles in renal tubules and lipids in glomeruli (histology) ([4]; 12 weeks): marked reduction
- weight of kidney, pancreas and heart ([4]; 12 weeks, to a level similar to lean control): significantly reduce
- reduction of bodyweight ([4]; 600-700U at 7-day intervals, by 5 weeks, HFD continued): over 30%
- fasting plasma leptin and total cholesterol levels ([4]; 600-700U weekly): markedly reduced to normal levels
- adipocyte size in WAT (histology) ([4]; 600-700U weekly, 12 weeks): prominent diminution
- weight of fat pad at visceral and subcutaneous depots ([4]; 600-700U weekly, 12 weeks): significantly reduced
- mRNA levels of lipogenesis related genes in liver ([4]; 600U weekly, 12 weeks): significantly downregulated
- glucose tolerance (GTT) ([4]; by 3 weeks of treatment): significant improvement
- fasting blood glucose and plasma insulin ([4]; by 4 weeks of treatment): restored to levels similar to the lean control mice
- insulin sensitivity (ITT) ([4]; by 4 weeks of treatment, comparable to lean control): marked increase
- glucose tolerance (GTT) ([4]; by 7 weeks of treatment, level similar to lean control): fully restored
- plasma arginine concentrations ([5]; 600U for 20 weeks, Biochrom 30 detection limit): < 3 µM
- bodyweight ([5]; 600U, by 5 weeks, maintained to 20 weeks without rebound): reduced to a level similar to the lean control mice

Reference: patent US20200181597A1, “Composition and Application of Arginine-depleting Agents for Cancer, Obesity, Metabolic Disorders, and Related Complications and Comorbidities” (THE HONG KONG POLYTECHNIC UNIVERSITY, priority 2018, published 2020)
